From publication doi:10.1101/2021.05.25.445634

Target: TnsC of the type V-K CRISPR-associated transposase system from S. hofmanni (ShCAST) (S. hofmanni)
Test: cryo-EM structure

How did the stoichiometry N turn out when “TnsC of the type V-K CRISPR-associated transposase system from S. hofmanni (ShCAST) (natural protein)” was run?
The stoichiometry N was 12 subunits.
